Laboratory results from the supplement of paper PMC9170038.

Test system: MS2 coat protein
Experiment: apparent KD of MS2 coat protein; higher = weaker reporter binding
Settings: Eterna round: R107
In short: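 The buffer was 100 mM Tris-HCl pH 7.5 with 80 mM KCl and 4 mM MgCl2, used without or with constant ligand. In it, RNA switches transcribed on-chip from Illumina sequencing clusters were titrated with SNAP-549-labelled MS2 coat protein in twofold steps from 0.7 or 1.5 nM to 3 µM. Apparent KD for each design is the median of its normalised cluster binding-curve fits.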

[1] = input ligand: theophylline 20 uM
[2] = input ligand: theophylline 2 mM
[3] = input ligand: tryptophan 2.4 mM

Row | Sequence | apparent KD of MS2 coat protein (input ligand: arginine 13.2 mM) [nM] | apparent KD of MS2 coat protein (input ligand: none) [nM] | apparent KD of MS2 coat protein [1] [nM] | apparent KD of MS2 coat protein [2] [nM] | apparent KD of MS2 coat protein [3] [nM]
1 | GCGAUGGAGCGAAGGAGCGGCUGUGACUACAUGAGGAUCACCCAUGUACGAUCGUAAGGUAGCCAGGUAGGUCGCGCUCCAUCGC [SSAB NP+V+V2 #17] | 18.7 | 29.3 | 41.8 | 41.8 | 26.2
2 | UUCUACAUGAGGAUCACCCAUGUGGGUGAUACCAGCACUUUUUGGUGCCCUUGGCAGCACAUGAGAAUACCGUACGAUCGGCGAU [Arainbi] | 122 |  | 500 |  | 609
3 | AGCAGCUCGAAAGAGUUGCACUCAUGUGAAGGAGCGCGCGUUAGCGCAGGUAGGUCGCACAUGAGGAUCACCCAUGUACCUUCUA [MAT - Exclusion Arginine A - Mod of Eli - D15] | 87.3 | 173 | 211 | 268 | 108
4 | GGGUACAUCGCGGCCGCCACUUGUGUAAAUACAUGAGGAUCACCCAUGUCGAUGGAGACAUCGGCAAGGACCGGGUGAUGUACCG | 107 | 130 | 172 | 146 | 15.2
5 | AGCGACAUGCAUGAUACCAGCUACAUGAGGAUCACCCAUGUACGUCAGUAAUGACUGUGUAGCCCUUGGCAGCAUAGAGCAUGUA [Exclusion - Theophylline B (Freestyle 14)] | 17.7 |  | 28 |  | 18.4
6 | GCUGGGUGCGCAAGGACCUGGCGUUGCGAUACCAGCACGGUAACGUGCCCUUGGCAGCGCACAUGAGGAUCACCCAUGUGGUGCG [#1 Exclusion - Theophylline A Attempt #21 (HarryS)] | 18.7 |  | 45.8 |  | 22.5
7 | CUGGACAUGAGGAUCACCCAUGUAAAUCCUCGAGGACCGGUACGGCCGCCACUCGAACGAGUGGCACGCGAGUGCGCACUCGCGU [aLa] | 26.9 | 29.8 | 45.6 | 36.2 | 33
8 | GCACAUGAGGAUCACCCAUGUACAACUGAAGGAGCGAGACAGAACUCAGGUAGGUCGCAGACUGCACAAUUGCGGACGACAUGGG [Exclusion Arginine A GF21] | 25.8 | 34.2 | 44.1 | 40.9 | 30.1
9 | CUCCUGGGAGCGGCCGCCACUGGAGGCCUUGCGCGACAUGAGGAUCACCCAUGUUGGCCCGGCCUCAGGACCGGGUUCGCGCGAG [Same State - Tryptophan B Attempt #2] | 12.3 | 11.3 | 12.3 | 9.73 | 10.1
10 | UUUGAUAGGACAGAUACCAGCGUGUUGUUGAACAUGAGGAUCACCCAUGUAGUGAUCAAGCGCCCUUGGCAGCUGGUUUGUUAGG [7.M] | 95.5 |  | 240 |  | 302
11 | GGUCAGCAGUCGGCCGCCACUAGUAUACAUGAGGAUCACCCAUGUCCCUUGCGCCUCACCGAUUUUAGGACCGGGACACUGCCUG [theeternabot_exclusion_MS2_Trp_B_9] | 25.1 |  | 42 | 40.2 | 
12 | AUAAUGGGUUUCGGACUAUCAUGGAAUGAUACCAGAUACUUAGAAAUCCCUUGGCAGCAUGAGGACAUGAGGAUCACCCAUGUAU [Th A Ex t1] | 41.9 |  | 78.9 |  | 71.4
13 | AGCUCGCGAAAGCGAGCAACAUGAUCCGAAGGAGCGGGCGAAAGCCCAGGUAGGUCGCGGACAUGAGGAUCACCCAUGUCUCCUU [MAT - Exclusion Arginine A - Mod of Eli - D13] | 41 | 70.9 | 88.4 | 94.8 | 77
14 | UGACAUUGCUGCGAUACCAGACAUGAGGAUCACCCAUGUACCAAGGUAAGAAAAUAACAUGUCCCUUGGCAGCGCAGCAAUGUCU [MAT - Exclusion Theophlline B - Mod of Eli - D1] | 18.9 |  | 40.2 |  | 14.4
15 | AGUAAUAAUAUAAAUAAUAUUAGGUCAUGGCGAGGACCGGUACGGCCGCCACUCGGUUACAUGAGGAUCACCCAUGUCCCGCUUA [Exclusion - Tryptophan A] | 26.6 |  | 35 | 31.2 | 
